Source: patent US20240043542A1 (published 2024)
Where two headings read alike, the source gives them in different places.

T1: human B7-H4 on the cell surface (human, UniProt Q7Z7D3 25-282)
T1 construct: full-length human B7-H4 on transfected HEK293T cells or endogenous on SK-BR-3 cells; also called SK-BR-3 (endogenous human B7-H4)
T1 sequence: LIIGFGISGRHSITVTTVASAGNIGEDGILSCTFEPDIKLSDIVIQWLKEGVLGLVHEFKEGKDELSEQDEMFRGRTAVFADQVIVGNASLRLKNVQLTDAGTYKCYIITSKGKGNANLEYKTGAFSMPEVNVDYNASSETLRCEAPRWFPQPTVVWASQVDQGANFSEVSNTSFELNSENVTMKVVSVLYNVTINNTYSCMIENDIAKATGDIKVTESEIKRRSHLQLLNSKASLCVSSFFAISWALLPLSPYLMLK

T2: cynomolgus monkey B7-H4 (recombinant, BLI) (cynomolgus monkey, UniProt Q7Z7D3 25-259 (human entry))
T2 construct: also called Cynomolgus B7-H4
T2 sequence: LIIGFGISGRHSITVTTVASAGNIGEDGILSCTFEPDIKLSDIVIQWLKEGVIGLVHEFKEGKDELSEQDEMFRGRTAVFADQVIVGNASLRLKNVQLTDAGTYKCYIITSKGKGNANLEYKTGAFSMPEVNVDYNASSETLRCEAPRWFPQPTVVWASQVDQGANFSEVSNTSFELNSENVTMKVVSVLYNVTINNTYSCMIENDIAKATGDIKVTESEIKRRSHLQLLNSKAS

T3: mouse B7-H4 (recombinant, BLI) (mouse, UniProt Q7TSP5 29-256, limits assumed)
T3 construct: also called murine B7-H4
T3 sequence: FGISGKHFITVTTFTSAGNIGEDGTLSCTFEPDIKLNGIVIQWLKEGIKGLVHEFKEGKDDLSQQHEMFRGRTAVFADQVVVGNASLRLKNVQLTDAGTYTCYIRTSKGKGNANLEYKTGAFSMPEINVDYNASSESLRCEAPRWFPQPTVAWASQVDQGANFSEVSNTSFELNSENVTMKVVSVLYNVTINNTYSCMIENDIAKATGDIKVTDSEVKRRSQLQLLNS

T4: cynomolgus monkey B7-H4 on the cell surface (cynomolgus monkey, UniProt Q7Z7D3 25-282 (human entry))
T4 construct: full-length, on transfected HEK293T cells
T4 chain: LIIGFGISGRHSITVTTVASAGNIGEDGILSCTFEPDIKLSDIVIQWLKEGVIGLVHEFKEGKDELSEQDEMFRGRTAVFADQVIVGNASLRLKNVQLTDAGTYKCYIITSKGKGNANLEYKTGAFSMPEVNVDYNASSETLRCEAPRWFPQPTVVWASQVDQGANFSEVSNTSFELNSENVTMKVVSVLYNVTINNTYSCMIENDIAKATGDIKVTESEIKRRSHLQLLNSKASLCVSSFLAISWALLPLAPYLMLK

T5: mouse B7-H4 on the cell surface (mouse, UniProt Q7TSP5 25-257)
T5 construct: full-length, on transfected HEK293T cells
T5 sequence: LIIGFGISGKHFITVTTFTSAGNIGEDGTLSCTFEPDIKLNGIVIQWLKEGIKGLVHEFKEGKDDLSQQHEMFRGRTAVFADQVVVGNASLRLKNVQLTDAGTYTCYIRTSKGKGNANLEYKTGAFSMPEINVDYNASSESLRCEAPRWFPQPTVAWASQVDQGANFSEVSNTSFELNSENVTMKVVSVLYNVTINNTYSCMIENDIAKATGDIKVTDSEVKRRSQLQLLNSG


Assays:
[1] = molecular target: T1, human B7-H4 on the cell surface; test: flow cytometry, SK-BR-3 cells
Description: (§1) Following incubation, cells were pelleted, washed and incubated with a secondary labeling antibody and samples were acquired on a flow cytometer. Data was analyzed using the FlowJo software and MFI was plotted vs. antibody concentration. The EC50 cell binding potency was calculated using nonlinear regression curve fit (GraphPad Prism).

[2] = molecular target: T6, recombinant human B7-H4-huIgG1 (human); test: BLI, antigen on Protein A tips;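 also: Anti-B7-H4 antibodies assessed for affinity toward the B7-H4 extracellular domain using biolayer interferometry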
T6 construct: also called B7-H4-extracellular domain (ECD)
Description: (§2) Binding affinities of anti-B7-H4 antibodies to B7-H4-extracellular domain (ECD) were determined by biolayer interferometry (BLI). […] Anti-B7-H4 antibodies were then evaluated for binding.

[3] = molecular target: T2, cynomolgus monkey B7-H4 (recombinant, …); test: BLI, antigen on Protein A tips;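 also: Anti-B7-H4 antibodies assessed for affinity toward the B7-H4 extracellular domain using biolayer interferometry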
Description: as §2

[4] = molecular target: T3, mouse B7-H4 (recombinant, BLI); test: BLI, antigen on Protein A tips;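 also: Anti-B7-H4 antibodies assessed for affinity toward the B7-H4 extracellular domain using biolayer interferometry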
Description: as §2

[5] = molecular target: T1, human B7-H4 on the cell surface; test: flow cytometry, 100 nM, transfected HEK293T
Description: (§3) HEK293T cell lines were transfected to express full-length human, cynomolgus monkey, mouse, or rat B7-H4. In addition, the endogenous human B7-H4 expressing SK-BR-3 breast cancer cell line was used to assess the ability of the antibodies to bind B7-H4 expressed on the cell surface. 1×10⁵ parental HEK293T or transfected HEK293T cell lines were incubated with 100 nM of the B7-H4 antibodies. Following incubation, cells were pelleted, washed, and incubated with a secondary labeling antibody, and samples were acquired on a flow cytometer. Fold binding over the parental cell line (FOP) was calculated as follows: MFI transfected HKE293T cells/MFI parental HEK293T cells.

[6] = molecular target: T4, cynomolgus monkey B7-H4 on the cell …; test: flow cytometry, 100 nM, transfected HEK293T
Description: as §3

[7] = molecular target: T5, mouse B7-H4 on the cell surface; test: flow cytometry, 100 nM, transfected HEK293T
Description: as §3

[8] = molecular target: T1, human B7-H4 on the cell surface; test: cell-based or functional assay
[9] = molecular target: T7, B7-H4 IgV-huIgG1 (human); test: SPR, antibody captured by anti-human Fab, antigen in flow
T7 construct: also called N-terminal domain of human B7-H4
Description: Briefly, anti-human Fab antibody was immobilized on a carboxyl-derivatized SPR chip surface, and anti-B7-H4 antibodies were captured on the resulting surface at 5 ug/ml for 30 seconds.

[10] = molecular target: T4, cynomolgus monkey B7-H4 on the cell …; test: flow cytometry, transfected 293 cells
Description: as §1

[11] = molecular target: T5, mouse B7-H4 on the cell surface; test: flow cytometry, transfected 293 cells
Description: as §1

[12] = molecular target: T1, human B7-H4 on the cell surface; test: cell-based or functional assay; remark: listed apart in the source

Row | EC50 [1] [nM] | Kd [2] [nM] | koff [2] [s⁻¹] | kon [2] [M⁻¹ s⁻¹] | Kd [3] [nM] | koff [3] [s⁻¹] | kon [3] [M⁻¹ s⁻¹] | Kd [4] [nM] | koff [4] [s⁻¹] | kon [4] [M⁻¹ s⁻¹] | Donor 1 Max IFNγ [8] [pg/mL] | Donor 2 Max IFNγ [8] [pg/mL] | Kd [9] [nM] | EC50 [11] [nM] | Binder | other results
1 | 8.86 | 7.11 | 0.00497 | 700000 | 7.8 | 0.00582 | 746000 | 38 | 0.016 | 422000 | – | – | – | – | B7-H4 antibody 15472 (antibody, human IgG1, kappa, V domains shown, human IgG1/kappa) VH: EVQLLESGGGLVQPGGSLRLSCAASGFTFSSYAMSWVRQAPGKGLEWVSTISGSGGSTYYADSVKGRFTISRDNSKNTLYLQMNSLRAEDTAVYYCARGAGHYDLVGRYWGQGTLVTVSS VL: not shown | FOP (fold binding over the parental cell line) [5]: 580 fold; FOP (fold binding over the parental cell line) [6]: 1280 fold; FOP (fold binding over the parental cell line) [7]: 685 fold
2 | – | 1.69 | 0.000746 | 441000 | 1.48 | 0.000678 | 458000 | 3.53 | 0.00164 | 466000 | 981 | 259 | – | – | B7-H4 antibody 20506 (antibody, V domains shown, human IgG1/kappa) VH: QLQLQESGPGLVKPSETLSLTCTASGGSISHGGYYWSWIRQHPGKGLEWIGNIYYSGSTYYNPSLKSRVTMSVDTSKNQFSLKLSSVTAADTAVYYCARESSTISADFDLWGRGTLVTVSS VL: DIQMTQSPSSVSASVGDRVTITCRASQGISRWLAWYQQKPGKAPKLLIYAASSLQSGVPSRFSGSGSGTDFTLTISSLQPEDFATYYCQQAHTFPYTFGGGTKVEIKR | Donor 3 Max IFNγ [8]: 86.1 pg/mL; Donor 4 Max IFNγ [8]: 2300 pg/mL; aAPC Assay EC50 (IFNγ production) [8]: 1.25 nM
3 | – | 1.2 | 0.00115 | 936000 | 1.2 | 0.00112 | 962000 | 3.4 | 0.00213 | 632000 | – | – | 2.03 | – | B7-H4 antibody 20502 (antibody, V domains shown, human IgG1/kappa) VH: QLQLQESGPGLVKPSETLSLTCTVSGGSIKSGSYYWGWIRQPPGKGLEWIGNIYYSGSTYYNPSLRSRVTISVDTSKNQFSLKLSSVTAADTAVYYCAREGSYPNQFDPWGQGTLVTVSS VL: EIVMTQSPATLSVSPGERATLSCRASQSVSSNLAWYQQKPGQAPRLLIYGASTRATGIPARFSGSGSGTEFTLTISSLQSEDFAVYYCQQYHSFPFTFGGGTKVEIKR | koff [9]: 0.000361 s⁻¹; kon [9]: 178000 M⁻¹ s⁻¹
4 | – | 5.67 | 0.00104 | 184000 | 5.44 | 0.00108 | 199000 | 16.7 | 0.00167 | 99500 | – | – | – | – | B7-H4 antibody 22208 (antibody, human IgG1, kappa, V domains shown, human IgG1/kappa) VH: QLQLQESGPGLVKPSETLSLTCTVSGGSIKSGSHYWGWIRQPPGKGLEWIGNIYYSGSTYYNPSLKSRVTMSVDTSKNQFSLKLSSVTAADTAVYYCAREGSYPNWFDPWGQGTLVTVSS VL: EIVMTQSPATLSVSPGERATLSCRASQSVSTNLAWYQQKPGQAPRLLIYDASARVTGIPARFSGSGSGTEFTLTISSLQSEDFAVYYCQQYHSFPFTFGGGTKVEIKR | –
5 | 7.6 | 0.805 | 0.000555 | 689000 | 0.721 | 0.000569 | 790000 | 24.6 | 0.0171 | 692000 | 186 | – | – | 6.7 | B7-H4 antibody 20496 (antibody, human IgG1, kappa, V domains shown, human IgG1/kappa) VH: QLQLQESGPGLVKPSETLSLTCTVSGGSISSSVYYWSWIRQPPGKGLEWIGSILVSGSTYYNPSLKSRVTISVDTSKNQFSLKLSSVTAADTAVYYCARAVSFLDVWGQGTMVIVSS VL: DIQMTQSPSSLSASVGDRVTITCRASQSISSYLNWYQQKPGKAPKLLIYGASSLQSGVPSRFSGSGSGTDFTLTISSLQPEDFATYYCQQSYDPPWTFGGGTKVEIKR | EC50 [10]: 7.91 nM; FOP (fold binding over the parental cell line) [5]: 179 fold; FOP (fold binding over the parental cell line) [6]: 758 fold; FOP (fold binding over the parental cell line) [7]: 604 fold
6 | – | 3.98 | 0.0018 | 453000 | 3.67 | 0.0018 | 491000 | 4.57 | 0.00236 | 517000 | 659 | 240 | – | – | B7-H4 antibody 20513 (antibody, human IgG1, kappa, V domains shown, human IgG1/kappa) VH: QLQLQESGPGLVKPSETLSLTCTVSGGSISDGSYYWSWIRQHPGKGLEWIGNIYYSGSTYYNPSLRSRVTMSVDTSKNQFSLKLSSVTAADTAVYYCARGLSTIDEAFDPWGQGTLVTVSS VL: not shown | Donor 3 Max IFNγ [8]: 91.1 pg/mL; Donor 4 Max IFNγ [8]: 1630 pg/mL; aAPC Assay EC50 (IFNγ production) [8]: 1.16 nM
7 | 14.8 | – | – | – | 108 | – | – | 263 | – | – | – | – | 18.4 | 8.82 | B7-H4 antibody 15483 (antibody, human IgG1, kappa, V domains shown, human IgG1/kappa) VH: QVQLQESGPGLVKPSQTLSLTCTVSGGSISSGGYYWSWIRQHPGKGLEWIGNIYYSGSTYYNPSLKSRVTISVDTSKNQFSLKLSSVTAADTAVYYCARGLSTIDEAFDPWGQGTLVTVSS VL: not shown | Donor 1 Max IFNγ [12]: 93.2 pg/mL; Donor 2 Max IFNγ [12]: 87.8 pg/mL; Donor 3 Max IFNγ [12]: 1380 pg/mL; Donor 4 Max IFNγ [12]: 939 pg/mL; aAPC Assay EC50 (IFNγ production) [12]: 729 nM
8 | – | 1.47 | 0.000359 | 245000 | 1.47 | 0.000359 | 245000 | 1.47 | 0.000359 | 245000 | – | – | – | – | B7-H4 antibody 22216 (antibody, human IgG1, kappa, V domains shown, human IgG1/kappa) VH: QVQLQESGPGLVKPSQTLSLTCTVSGGSISDGSYYWSWIRQHPGKGLEWIGNIYYSGSTYYNPSLRSRVTMSVDTSKNQFSLKLSSVTAADTAVYYCARGLSTIDEAFDPWGQGTLVTVSS VL: DIQMTQSPSTLSASVGDRVTITCRASKSISSWLAWYQQKPGKAPKLLIYEASSLHSGVPSRFSGSGSGTEFTLTISSLQPDDFATYYCQQDNSYPYTFGGGTKVEIKR | –
9 | 31.7 | 63.7 | – | – | 72.1 | – | – | 201 | – | – | – | – | 23.7 | 17.5 | B7-H4 antibody 15489 (antibody, human IgG1, kappa, V domains shown, human IgG1/kappa) VH: QVQLQESGPGLVKPSETLSLTCTVSGGSISSYYWSWIRQPPGKGLEWIGYIYSSGSTNYNPSLKSRVTISVDTSKNQFSLKLSSVTAADTAVYYCARGSGQYAAPDYGMDVWGQGTTVTVSS VL: DIQMTQSPSTLSASVGDRVTITCRASQSISSWLAWYQQKPGKAPKLLIYKASSLESGVPSRFSGSGSGTEFTLTISSLQPDDFATYYCQQDNSFPFTFGGGTKVEIKR | Donor 1 Max IFNγ [12]: 82.5 pg/mL; Donor 2 Max IFNγ [12]: 96.6 pg/mL; Donor 3 Max IFNγ [12]: 1130 pg/mL; Donor 4 Max IFNγ [12]: 800 pg/mL; aAPC Assay EC50 (IFNγ production) [12]: 291 nM
10 | – | 18 | 0.00738 | 410000 | 17.6 | 0.00783 | 445000 | 41.4 | 0.0165 | 398000 | – | 441 | – | – | B7-H4 antibody 20516 (antibody, human IgG1, kappa, V domains shown, human IgG1/kappa) VH: QVQLQESGPGLVKPSETLSLTCTVSGGSIISYYWGWIRQPPGKGLEWIGYIYSSGSTSYNPSLKSRVTISVDTSKNQFSLKLSSVTAADTAVYYCARGSGLYAAPDYGLDVWGQGTTVTVSS VL: DIQMTQSPSTLSASVGDRVTITCRASQSISSWLAWYQQKPGKAPKLLIYKASSLESGVPSRFSGSGSGTEFTLTISSLQPDDFATYYCQQDNSFPFTFGGGTKVEIKR | –
